Results taken from the DeepSol protein solubility set.

Test: soluble on expression in E. coli; label from the status in PepcDB or PDB records

Sequence | soluble on expression in E. coli
MKTVICGVQNMTTIRRLSAEDLLHFNSVNLDQLTETFNLGFYFNYLARWPDYQYVVTDSQSTTVAYIIGKAEGAGDLFHGHVSAVTVAPWFRRMGLASLLMEILENVSEKVYQGYFVDLFVRVSNHRAIEMYKKLGYIVYRRIIGYYSGEEDAFDMRKSLSKDPERKAMIPLDRPVYPSEVLLTD | soluble
MKTVLLTGFDPFGGESINPAWEVAKSLHEKTIGEYKIISKQVPTVFHKSISVLKEYIEELAPEFIICIGQAGGRPDITIERVAINIDDARIADNEGNQPVDVPVVEEGPAAYWSTLPMKAIVKKLQEEGIPASVSQTAGTFVCNHLFYGLMHELEKHDTKMKGGFIHIPFLPEQASNYPGQPSMSLSTIRKGIELAVEVTTTVEVDIVEVGGTTH | soluble
MKTVYLTIDDGPSKDRKEKVDILYQYGIQPIWFCIGSEIEKRPEDVIYSIRKGGIIGNHSYSHPRFSQISLEECFEEIEKTDRIIDSIYREAGVARPIKAFRFPYGDKGEDNNFFKKPYSEEGKKKISKIMTFLKELGYTKPKFDGITYEYYSKFGLKDDIDWYWTYDVAEWCTFQEKPMFGVRTIDDVFELMELDLPEKWAGLNYPYSDDIILMHDHPQTTPLFKPIICQLLKKGLHFGAIPLE | soluble
MKVAVLDFGKTNSKLFVFGQDGGILDERRTQPKWTHQDGFSVLDEAALHDWALGAVTEAVENHGVEGVMVSGHGCTFALVDDAALTHPILDYEQEPPAEIAARIDHRIPDFAETFSPRLPLGFNYGRHMLWVQEVDPDAFAAAKSILGYPQYWSWRLGGRPVSEVSYLGCHSHLWAPRSQDFSSLVDAEGWRGQMPAFARAGAVIGERRLGSSSRPIAIHNGVHDSNAALHAYRRQELGPLTVVSTGTWVVVLNPGCPLDVLDRDRDMLVNVDVDGGPVPTIRFMGGREFAAISAGWQGAIPPGAVQQAIDAGIMALPSFAPGGPMPDRPGRLVGRTPYAAERAAAALLYVALMVDLCLDLIQSQDTVIVDGGLNAGGLLAGLLAELRPGQAFLQGATLEGSATGAAALAFESVGRDFVAEAPEPVHAARFAGLAGYRDAWRDRVGGQGTAIKAAGGARLEHHHHHH | not soluble
MKVDLFDFHLPEELIAQTPLPDRAASRLMVLDKRTGAIRHETFRNIISYLNPGDCLVLNDTRVMPARLYGEKEETGGTVEVLLLKQLDGDRWETLVKPGKRVKPGTKLTFGGGKLEAVCLDTLEHGGRVLEFSYDGLFYEVLAELGEMPLPPYIKEKLDDPERYQTVYAREIGSAAAPTAGLHFTEELLDAIREKGVHIVFITLHVGLGTFRPVQVDEVEKHDMHAEFYQMSEETAETLNRVREQGGRIIAVGTTSTRTLETIAGKHNGRFVAESGWTDIFIYPGYEFKGIDGLVTNFHLPKSTLIMLVSALAGRENILHAYQVAVKERYRFFSFGDAMLII | not soluble
MKVFEGKPRINSPHITGNYPSTPFIFYIPTSGQRPMQWSAEKLPEGLELDSKTGIISGVMTSKGDYTVTLKAENALGVSVKQLEHHHHHH | not soluble
MKVKSISRFFSMKKVTLSFVTLFIGVGTIGSYNQYADASMKTQQTHVTKSSPTQKTTSNFKRSVKDTSVKSRATSIKRATSTKQAISPKTSSTKKTTIAKKSTTVNKTRTTTKTQPTIRKSSTTSTRSKTMPTSVKRTTSHKATTVSPTSKAKISTKTQQSTKSHTTSVKKNTTQLSKTKSPSTSTKSKTVQSSTTKAQPTLSTQVSTTTKAKQFSTPTTSKTDSSKSLVSLASTERKIDKYQSMTQLEKETTEGVDWRKDTKNTGNQVLIVAPHGGSIEQGTTELTKALADKGNYDYYSFEGIRPKNNSELHVTSTHYDDPTLNQMIKNRTATISIHGASGSEEIIYLGGPRSDLRNAIEKQLVARGFTVKVPPEYLGGQNNKNFINREDNNTGVQLELTTALRKAFFKNGDTSTKNRTNKENWTPTMEEFINALYEGINQTYSLEHHHHHH | not soluble
MKVLFAKTFVKDLKHVPGHIRKRIKLIIEECQNSNSLNDLKLDIKKIKGYHNYYRIRVGNYSIGIEVNGDTIIFRRVLHRKSIYDYFP | soluble
MKVLFRSDSSSQIGFGHIKRDLVLAKQYSDVSFACLPLEGSLIDEIPYPVYELSSESIYELINLIKEEKFELLIIDHYGISVDDEKLIKLETGVKILSFDDEIKPHHCDILLNVNAYAKASDYEGLVPFKCEVRCGFSYALIREEFYQEAKENRKKKYDFFICMGGTDIKNLSLQIASELPKTKIISIATSSSNPNLKKLQKFAKLHNNIRLFIDHENIAKLMNESNKLIISASSLVNEALLLKANFKAICYVKNQESTATWLAKKGYEVEYKYLEHHHHHH | soluble
MKVLHMNAGAEEGGGKTHIISLLSQFSKEEVELMVFEEGAIAREARNLGIQVHVFTQSSRYDLSILSKIKAFINENQFDIVHTHGARANFYLSLLKKGIKAKWIMTVHSDPTLDFMKRGLKGWVFTKLNLRSFRKVDLFFAITENFKRNIIKLGVPEEKICTVYNGIEYDSNPAKPYDKSEFGIDEGIFTAIQVARLHPVKGHDILFEALQKIKIPNIKVLLLGDGPIEAELKEMVKQKGLEDKVMFLGFRIDSKELYASAHINLLTSYSESFPLVLLEAANQRLTSIATNVGDMKKLIVDDTYGWIVPIGDADSLANALENAYEKWLNGELEAMGNRLYTHASTHFSLKNLYEDTYNAYKTLLLK | not soluble
MKVLILTVGTTREPLEVALAEHAPQGVVFLASQASHPVAAELVRDYGGSFRHHTLLLEDAESLMEAYQKALLALRKALEWEATAIVADLTGGTKPMAAGLVLALTGRGVVFSYVGGEARDPGTGRVLAGKERLRLLEDPTARLGLKEWAGFTRAWNALNLGMALAELESLLRRDLSPSEARFYGAMKGVVEGLMEWDRFRHREAWERLSVHLPLALAVAEAWGHGAKVRVLKGLEALLPHLKGIVEAGPKPTFLLLQDLLANAERRAALGRFDDALARLYRALELAVEADVHERLGFSLKDPRTWPEGFPEGLRERILKPRGLMDLLDAAFDLDLAFGEQGTLAQRLYGEKNRLQALLQRRHESILAHGTRPVGEEDYTALRDFLMRLDERLRPLPPWPRF | soluble
MKVRFLQISDLHFQFQNYDTIVMRDKLLDFIEVLRRESDFDFLLLTGDIAHKGDVYNEDVKEYLNGIIKSMGLSKNNVHLVPGNHDISRDMTRTLLIDSIMKSPNPSEMLDKLDQKATNILVEGQRKFFDFYEDFMGVKYPEEDLHFLYQSEKYNVLSINTCLLSDKKGEEGTLLTAQMKLYKAIRKMNKEKNKGKVLNIAIGHHTLGCIESSERESIKAHFDDYFIDLYLAGHVHDSSFNITANTNENPFLELVSGAIIKDEYATPEFISVDVNLDNGETEVTYYIWNTEYKYWSKNNQGGRRLQEGKLNYKINRLESLIEKEIEDNDDKIDEDEFKSFIIDFHEYRESYKTFTSNFDNQIGLDKKFYDMKSGETFKRKFDSYSEYFGVINHIMDSTSYVSADKKELIAETIVDKYLEFHNQYNNGDEIFVKIVNEIYLECHSVLPYSKALTKKYIKILTCWCIYECEIFNDNKRSVKNDLEHHHHHH | soluble
MKVSLVIPTYNSKDLVAPCLVSLNHQRLDEADEFEVVLVDDGSTDGTGEVVDSLPLTYRIRRVYVPRTEKSCRSAARNAGIRAADGELIVFVDGDQIIDPLFVQEHIRCHRGRPAIVAIGFRDYQAPGAVDLALLERSFTPEAFPPVADQDERAQVTATLSQNMGNLATGWHFFYGCNVSVRKEHLLAVGGFDENIQKWSFEDVELGYRLHRRGLAFVHNLYSRVYHQFHPESDQERYADWRENFEYFTSKHPELEVRLQWVLDSYFDPGRTSRPSWFDAYLRFEFACRAVAERLPIGHSYEVLVVDADNLDSAEREIARVGAAHDLIVVDITDDRELPTAVQAMRTGRELLYFKEPSPELLQQAAKSFGCAALLKYAAEVLEHHHHHH | soluble
MKYCKFCCKAVTGVKLIHVPKCAIKRKLWEQSLGCSLGENSQICDTHFNDSQWKAAPAKGQTFKRRRLNADAVPSKV | soluble
MKYFEFTFHTSPCTETVNDVLAAVLGEAGFESFVESEGGLTAYIQQALCDENTIKNAITEFPLPDTEITYTYVEAEDKDWNEEWEKNFFQPIVIDNRCVIHSTFHKDVPQATYDIVINPQMAFGTGHHETTSLIIGELLDNELKDKSLLDMGCGTSILAILARMRGARPCIAIDIDEWCVRNSIENIELNHVDDIAVSQGDASSLVGKGPFDIIIANINRNILLNDMKQYVACMHPGSELYMSGFYVDDIPFIRREAEKNGLTFVHHKEKNRWAAVKFTY | not soluble
MKYFNVGKIVNTQGLRGEVRVLSVTDFADERFKKGSQLALFDKKDHFAMTVEIASHRKHKNFDIVKFKGLYHINDVEKYRDFTLKVTEDHLADLEDGEFYYHEIIGLDVYENDILIGQVKEILQPGANDVWVVKRKGKKDLLLPYIPSVILKVDVPNGRIDVTVLEGLDDENLEHHHHHH | soluble
MKYIVAVNASPRSGWNTSQLVEAAAKGAKEAGATVDIIDLYKLEPFQGCISCFGCKLPRTFGRCVSKDGLSEVLDKIRKADGLILGSPNYLGNLTAGFRALYERLIFQSLTYNKERPNCNEHMIPVLLITTSNCDESIYDKIGYTSMLEGYKQMLERFVGPLEHHHHHH | not soluble
MKYLAAYLLLVQGGNAAPSAADIKAVVESVGAEVDEARINELLSSLEGKGSLEEIIAEGQKKFATVPTGGASSAAAGAAGAAAGGDAAEEEKEEEAKEESDDDMGFGLFD | soluble
MKYNTMNNDEIILSLCARLKETRLSLSMTQQQLADRAHVGIATIKRIEKGGGLNLDTLISLLRALDKLHNLDAVLFESELRNFHESYEGGEGSGRLQVRQQAADLNNKSSAPQSEEVNYSAALENSLCW | not soluble
MLAGHTLIESKNDHQSRRNCEFRRAIAAAGRCRRVYGGALPLLASSVPMSVRMDTRHRQKQALAQTAATMIEPGEFIFLDSGSTNLALIDFLPKGYDLTLATNSIDIAGAALRGQDLKLIMLGGTVDLAVGGCVDATAIGSLAQMNIDRSFIGVCSVSPTFGLSAFDIADATFKRALVAASGYTIALATTDKLEVRAPHRVSEINEIDCLVLEHDAPISHLDDLVRAGASIVKALQPFAAALEHHHHHH | not soluble
MLAHIKITHFAIVKSLELDLTKGMTTITGETGAGKSIAIDALGLCLGDRAEASMVRQGEEKAEITVLFTLENNINAKRWLEDNELYDGNDCILRRVITKEGRSRGFINGSPVPAAQLKTLGHLLINIHGQHAHHELMKPEYQLNMLDQYAGHVSLLNKTRSRYQAWRQA | not soluble
MLASIPLKDIQIQDRFWKERLDLVRKEIIPYQWEAMNDRVPNAEPSHCIENYRIAAGQAQGSFYGEVFQDSDLAKWLEAVAYVLSFQPDPKLEKLADEAIELVCAAQQSDGYLNTFFTIKEPDQRWRNLREGHELYCAGHMMEAAVAYFEATGKRRLLDAMMRFADLICNTFGPEEGKIHAYPGHEEVELALFRMYRATGVRRYLELSAYFINCRGTGENYFRKENDRPGYLPIWGSMDTNSDMSYYQAHQPVREQKQAAGHAVRAMYLYSAMADLAGELKDEGLLNACKTLWNNVTERQMYVTGGVGASGILERFTTDYDLSNEMAYAESCASIGLMLFGLRMNRVTRQAQYFDPVERALYNTVLASVALDGKSFFYVNPLEVWPKACMPYTSKEHVKPVRQPWFSCACCPPNVARTFASLGQYIWAQDSQRVYLNLFISSTVKAKNGAILKLETEFPMGNVLKITSDQVLELAVRIPGYGKNFRANVSYRKENGYGVFELEAGKELEIQFDAPACFIRANPEVRACSGKVCIQRGPVVYCLEEIDNGSNLSALSVDTAVSPGERESDIPGGLMITASGKRRRPWADDKLYGEIPSQYEETVLQAVPYAFWGNREKGEMTVWIRESLEHHHHHH | not soluble
